In US20120003299A1 (KYOTO UNIVERSITY, published 2012):

Tests used:
recombinant human Hsp90 [1] = biological target: T1, recombinant human Hsp90 (human, UniProt P07900 1-732); test: SPR competition: Hsp90 pre-mixed with 1.411 uM peptide, injected over immobilized Hop TPR2A
T1 construct: The tag is placed first here only because pDEST17 is named; also called heat shock protein 90; not shown: histidine tag from E. coli expression vector pDEST17-Hsp90

recombinant human Hsp90 [2] = biological target: T1, recombinant human Hsp90; test: SPR competition: Hsp90 pre-mixed with 705.5 uM peptide, injected over immobilized Hop TPR2A
recombinant human Hsp90 [3] = biological target: T1, recombinant human Hsp90; test: SPR competition: Hsp90 pre-mixed with 141.1 uM peptide, injected over immobilized Hop TPR2A
recombinant human Hsp90 [4] = biological target: T1, recombinant human Hsp90; test: SPR competition: Hsp90 pre-mixed with 14.11 uM peptide, injected over immobilized Hop TPR2A
recombinant human Hsp90 [5] = biological target: T1, recombinant human Hsp90; test: SPR competition: Hsp90 without peptide (0 uM, reference) over immobilized Hop TPR2A
recombinant human Hsp90 [6] = biological target: T1, recombinant human Hsp90; test: SPR competition: Hsp90 pre-mixed with 282.2 uM peptide, injected over immobilized Hop TPR2A

| Binding of Hsp90 (%) (recombinant human Hsp90 [1]) | Binding of Hsp90 (%) (recombinant human Hsp90 [2]) | Binding of Hsp90 (%) (recombinant human Hsp90 [3]) | Binding of Hsp90 (%) (recombinant human Hsp90 [4]) | Binding of Hsp90 (%) (recombinant human Hsp90 [5]) | Binding of Hsp90 (%) (recombinant human Hsp90 [6]) | Binder |
| --- | --- | --- | --- | --- | --- | --- |
| 88.2 | 0 | 72.3 | 84.6 | 100 | 29.8 | KAYARIGNSYFK [TPR peptide (KAYARIGNSYFK)] |
| 100 | 88.9 | 100 | 100 | 100 | 90.7 | RKFSAAIGYNKY (Control peptide) [TPR scramble peptide] |
